From patent publication CN115028713A (JIANGSU DONGKANG BIOMEDICAL TECH CO LTD, dated 2022)

Molecular target: 重组新冠N蛋白 N-HIS6X (recombinant SARS-CoV-2 N protein with His6 tag) (SARS-CoV-2, UniProt P0DTC9 1-419)

B1: 单克隆抗体OP2 (anti-SARS-CoV-2 N protein monoclonal antibody OP2) (antibody, V domains shown)
VH: DVQLVESGGGLVQPGGSRKLSCAASGSTFSNFGMHWVRQAPEKGLEWVAYISSASSIIYYADTVKGRFTISRDNPKNTLFLQMTSLRSEDTAMYYCARSAMDYWGQGTSVTVSS
VL: DIVLTQSPASLAVSLGQRATISCKASQSVNYSGDSYMNWFQQKPGQPPKLLIYAASNLESGIPARFSGSGSGTDFTLNIHPVEEEDAATYYCQQSEEQPYTFGGGTKLEIK
notes: also called 抗N蛋白的抗体
Work on B1 yielded an EC50 of 0.0113 µg/mL.
